What is called EC50 (read off the curve) is the midpoint of the concentration-response curve. The low end stands for a more potent agent, the high end for a less potent agent.

For the assay, the target named is full length gp41 HIV protein (Abcam) (human immunodeficiency virus-1 (HIV-1)). Kind of assay: titration ELISA, wells coated with 1 µg/mL antigen, 2F5 in 4-fold dilutions from 30 µg/mL. On the technique in general: ELISA stands for enzyme-linked immunosorbent assay.

The substance “2F5 broadly neutralizing human monoclonal antibody” registered an EC50 (read off the curve) of 0.1 µg/mL.
